# Source: IntAct's records for PubMed 27009418
# B1: Calsenilin (Mus musculus), Q9QXT8 (parent)
# chain: MQRTKEAVKASDGNLLGDPGRIPLSKRESIKWQRPRFTRQALMRCCLIKWILSSAAPQGSDSSDSELELSTVRHQPEGLDQLQAQTKFTKKELQSLYRGFKNECPTGLVDEDTFKLIYSQFFPQGDATTYAHFLFNAFDADGNGAIHFEDFVVGLSILLRGTVHEKLKWAFNLYDINKDGCITKEEMLAIMKSIYDMMGRHTYPILREDAPLEHVERFFQKMDRNQDGVVTIDEFLETCQKDENIMNSMQLFENVI
# Variants of: B1
# Settings: with psn1_human PSEN1, P49768
row,Variant,effect of a mutation on the interaction
1,E234Q,decreasing interaction
2,E186Q,decreasing interaction
